Results as given in article PMC3616705 (Nucleic Acids Research, 2013).

B1: Cex1p9-358 (N-terminal kinase-like domain of Cex1p), N-terminal His tag (domain or fragment, Saccharomyces cerevisiae, UniProt Q12453 9-358, looked up)
chain: SISNFQFPYTIEETAITETALWQCFDGTRKADSLPVTVFKAKRSPENESLILNAVHKSKILKIPGLCTVLETFDSDPQSTFIVTERVVPFPWDNLGSLSQNKFGVELGISQLLATLGFLKNFVLGTLSKDSVFINIKGEWVLFGLELCSSKEGLSAFEFASRARSYYNIIGSQLPCEDPNTIDSMGLGLLIKSLMAPSCLPKDWIVNVNMISDGKITIENFRKRLENTETWRSNPLINFYQELRELHIKDPQGKLVVMSNLENLYLESREIFRNLTPGMIENFIIPELCEIIKLLMTQSISSAASPIGMNFNASHKLVPFLAIVLDLTSETNTFPVGFNDLITQSFKLPD
B2: Cex1pΔC-SER (residues 9-564, E535A/K536A/E537A) with N-terminal His tag, as used in the pull-down (domain or fragment, Saccharomyces cerevisiae, UniProt Q12453 9-564, looked up)
chain: SISNFQFPYTIEETAITETALWQCFDGTRKADSLPVTVFKAKRSPENESLILNAVHKSKILKIPGLCTVLETFDSDPQSTFIVTERVVPFPWDNLGSLSQNKFGVELGISQLLATLGFLKNFVLGTLSKDSVFINIKGEWVLFGLELCSSKEGLSAFEFASRARSYYNIIGSQLPCEDPNTIDSMGLGLLIKSLMAPSCLPKDWIVNVNMISDGKITIENFRKRLENTETWRSNPLINFYQELRELHIKDPQGKLVVMSNLENLYLESREIFRNLTPGMIENFIIPELCEIIKLLMTQSISSAASPIGMNFNASHKLVPFLAIVLDLTSETNTFPVGFNDLITQSFKLPDRQVRFLLLIYLPKLIGPLSKSEISSRIYPHFIQGLTDSDATLRLQTLKTIPCIVSCLTERQLNNELLRFLAKTQVDSDVEIRTWTVIIISKISTILSTSVGNRSNILATAFTKSLKDPQVKPRLAALYGLEKSIELFDVNTIANKILTVIAPGLLDKSPIVRGRAKILFEEYLEKLAAAAQLIQTNDSTADSEDVKDIDFENYGCD
B3: Cex1pΔC-SER (residues 9-564, E535A/K536A/E537A), His tag removed (domain or fragment, Saccharomyces cerevisiae, UniProt Q12453 9-564, looked up)
chain: B2 chain
B4: wild-type, full-length Cex1p (cytoplasmic export protein), N-terminal His tag (natural protein, Saccharomyces cerevisiae, UniProt Q12453 1-761, looked up)
chain: MNFSSIFKSISNFQFPYTIEETAITETALWQCFDGTRKADSLPVTVFKAKRSPENESLILNAVHKSKILKIPGLCTVLETFDSDPQSTFIVTERVVPFPWDNLGSLSQNKFGVELGISQLLATLGFLKNFVLGTLSKDSVFINIKGEWVLFGLELCSSKEGLSAFEFASRARSYYNIIGSQLPCEDPNTIDSMGLGLLIKSLMAPSCLPKDWIVNVNMISDGKITIENFRKRLENTETWRSNPLINFYQELRELHIKDPQGKLVVMSNLENLYLESREIFRNLTPGMIENFIIPELCEIIKLLMTQSISSAASPIGMNFNASHKLVPFLAIVLDLTSETNTFPVGFNDLITQSFKLPDRQVRFLLLIYLPKLIGPLSKSEISSRIYPHFIQGLTDSDATLRLQTLKTIPCIVSCLTERQLNNELLRFLAKTQVDSDVEIRTWTVIIISKISTILSTSVGNRSNILATAFTKSLKDPQVKPRLAALYGLEKSIELFDVNTIANKILTVIAPGLLDKSPIVRGRAKILFEEYLEKLEKEAQLIQTNDSTADSEDVKDIDFENYGCDEEDMNKEDNLLAAQFLNNLRLNSPSATTPSNITESEIDSAQDGSGWDDLSDTDGFITNGTTESFDETTNPVTTASTPKLFGKPIKINKSWNDELNDDGWIQDESGPSKVPQKHTRPQNSTLAKSIAPSSRLSIKKKKTTILAPRNIASNSTVTTKSSLSNKTARSKPISSIRGSVTKKGNVDGWDDDGDSDSWDTNW

Experiments:
[1] = biological target: the molecule itself; assay: AUC
[2] = biological target: Los1p·Gsp1p export complex (GST-Los1p together with GST-Gsp1p on glutathione resin) (yeast, UniProt P33418 1-1100; P32835 1-219); assay: pull-down

| Binder | stoichiometry N [1] | binding result [2] |
| --- | --- | --- |
| B1 | 2 | binds |
| B2 |  | binds |
| B3 | 2 |  |
| B4 | 2 | binds |
